# Data published in paper PMC10786891, “Massively parallel profiling of RNA-targeting CRISPR-Cas13d”.
# Changes are numbered by the printed parent chain.
# T1: EsCas13d, nuclease-dead (Eubacterium siraeum, UniProt B0MS50, R295A;H300A;R849A;H854A)
# T1 sequence: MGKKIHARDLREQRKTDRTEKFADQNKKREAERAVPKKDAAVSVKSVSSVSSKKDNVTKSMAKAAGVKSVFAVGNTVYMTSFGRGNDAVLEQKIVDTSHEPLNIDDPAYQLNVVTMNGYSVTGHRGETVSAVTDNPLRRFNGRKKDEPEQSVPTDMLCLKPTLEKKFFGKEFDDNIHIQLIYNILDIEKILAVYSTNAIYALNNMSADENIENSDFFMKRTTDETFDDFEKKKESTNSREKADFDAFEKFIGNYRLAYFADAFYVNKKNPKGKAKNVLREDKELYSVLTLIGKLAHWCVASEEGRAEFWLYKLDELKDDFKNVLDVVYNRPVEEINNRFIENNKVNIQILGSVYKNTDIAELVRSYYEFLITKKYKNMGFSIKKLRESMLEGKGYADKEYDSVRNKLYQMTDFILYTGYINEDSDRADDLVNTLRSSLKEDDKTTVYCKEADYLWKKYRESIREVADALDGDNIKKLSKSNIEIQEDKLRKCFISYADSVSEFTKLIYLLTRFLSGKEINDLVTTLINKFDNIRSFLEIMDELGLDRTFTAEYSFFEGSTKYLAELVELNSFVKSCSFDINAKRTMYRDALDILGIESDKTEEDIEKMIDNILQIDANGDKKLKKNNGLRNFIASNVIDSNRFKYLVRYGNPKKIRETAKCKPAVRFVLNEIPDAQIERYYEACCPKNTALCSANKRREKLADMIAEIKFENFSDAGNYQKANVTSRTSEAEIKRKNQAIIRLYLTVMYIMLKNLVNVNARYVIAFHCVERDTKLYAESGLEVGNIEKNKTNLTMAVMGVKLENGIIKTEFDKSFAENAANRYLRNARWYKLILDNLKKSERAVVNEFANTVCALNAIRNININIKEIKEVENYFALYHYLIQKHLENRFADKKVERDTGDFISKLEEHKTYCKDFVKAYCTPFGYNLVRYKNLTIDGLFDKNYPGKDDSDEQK
# B1: target 1 MT 5'PFS CUU 3'PFS AAU (mixed)
# RNA 1: CACCCGUGCAAAAAUGCAGGGGUCUAAAACUGAGCGGAUAACCUCUCUAUGG
# RNA 2: GGGAAUGGAUCCACAUCUACGAAUUCCUUCCAUAGAGAGGUUAUCCGCUCAAAUAGAUCGGAAGAGCACACGU
# B2: target 1 MT 5'PFS CCU 3'PFS UCC (mixed)
# RNA 1: B1 RNA 1
# RNA 2: B1 RNA 2 with U28C, A52U, A53C, U54C
# B3: target 1 MT 5'PFS GGG 3'PFS AAU (mixed)
# RNA 1: B1 RNA 1
# RNA 2: B1 RNA 2 with C27G, U28G, U29G
# B4: target 1 MT 5'PFS UAA 3'PFS UAA (mixed)
# RNA 1: B1 RNA 1
# RNA 2: B1 RNA 2 with C27U, U28A, U29A, A52U, U54A
# B5: target 1 MT 5'PFS UCG 3'PFS AAU (mixed)
# RNA 1: B1 RNA 1
# RNA 2: B1 RNA 2 with C27U, U28C, U29G
# B6: target 1 insA 3' of 11,insG 3' of 2 (mixed)
# RNA 1: B1 RNA 1
# RNA 2: GGGAAUGGAUCCACAUCUACGAAUUCGUACCAUAGAGAGGUAUAUCCGCUCGACCGAGAUCGGAAGAGCACACGU
# B7: target 1 MT 5'PFS GGC 3'PFS UGU (mixed)
# RNA 1: B1 RNA 1
# RNA 2: B1 RNA 2 with C27G, U28G, U29C, A52U, A53G
# B8: target 1 MT 5'PFS GAC 3'PFS CGA (mixed)
# RNA 1: B1 RNA 1
# RNA 2: B1 RNA 2 with C27G, U28A, U29C, A52C, A53G, U54A
# B9: target 1 insC 3' of 20,insU 3' of 2 (mixed)
# RNA 1: B1 RNA 1
# RNA 2: GGGAAUGGAUCCACAUCUACGAAUUCGUACCACUAGAGAGGUUAUCCGCUCUACCGAGAUCGGAAGAGCACACGU
# B10: target 1 MT 5'PFS AAA 3'PFS UGA (mixed)
# RNA 1: B1 RNA 1
# RNA 2: B1 RNA 2 with C27A, U28A, U29A, A52U, A53G, U54A
# B11: target 1 MT 5'PFS GGC 3'PFS UGG (mixed)
# RNA 1: B1 RNA 1
# RNA 2: B1 RNA 2 with C27G, U28G, U29C, A52U, A53G, U54G
# B12: target 1 MT 5'PFS UUG 3'PFS ACC (mixed)
# RNA 1: B1 RNA 1
# RNA 2: B1 RNA 2 with C27U, U29G, A53C, U54C
# B13: target 1 MT 5'PFS UUG 3'PFS AAC (mixed)
# RNA 1: B1 RNA 1
# RNA 2: B1 RNA 2 with C27U, U29G, U54C
# B14: target 1 MT 5'PFS GCC 3'PFS CUU (mixed)
# RNA 1: B1 RNA 1
# RNA 2: B1 RNA 2 with C27G, U28C, U29C, A52C, A53U
# B15: target 1 MT 5'PFS UUG 3'PFS AAU (mixed)
# RNA 1: B1 RNA 1
# RNA 2: B1 RNA 2 with C27U, U29G
# B16: target 1 MT 5'PFS UAA 3'PFS UAU (mixed)
# RNA 1: B1 RNA 1
# RNA 2: B1 RNA 2 with C27U, U28A, U29A, A52U
# B17: target 1 insC 3' of 12,insC 3' of 9 (mixed)
# RNA 1: B1 RNA 1
# RNA 2: B6 RNA 2 with U41C, A42U, U45C, C46U, G48C, C49G, U50C, C51U, G52C
# B18: target 1 MT 5'PFS UCC 3'PFS ACG (mixed)
# RNA 1: B1 RNA 1
# RNA 2: B1 RNA 2 with C27U, U28C, U29C, A53C, U54G
# B19: target 1 MT 5'PFS GAC 3'PFS CGC (mixed)
# RNA 1: B1 RNA 1
# RNA 2: B1 RNA 2 with C27G, U28A, U29C, A52C, A53G, U54C
# B20: target 1 MT 5'PFS AGG 3'PFS UGC (mixed)
# RNA 1: B1 RNA 1
# RNA 2: B1 RNA 2 with C27A, U28G, U29G, A52U, A53G, U54C
# B21: target 1 MT 5'PFS UAA 3'PFS UAC (mixed)
# RNA 1: B1 RNA 1
# RNA 2: B1 RNA 2 with C27U, U28A, U29A, A52U, U54C
# B22: target 1 MT 5'PFS AGU 3'PFS UCC (mixed)
# RNA 1: B1 RNA 1
# RNA 2: B1 RNA 2 with C27A, U28G, A52U, A53C, U54C
# B23: target 1 MT 5'PFS UUG 3'PFS CCU (mixed)
# RNA 1: B1 RNA 1
# RNA 2: B1 RNA 2 with C27U, U29G, A52C, A53C
# B24: target 1 del2 (mixed)
# RNA 1: B1 RNA 1
# RNA 2: GGGAAUGGAUCCACAUCUACGAAUUCGUACCAUAGAGAGGUUAUCCGCUACCGAGAUCGGAAGAGCACACGU
# B25: target 1 MT 5'PFS UCG 3'PFS AAA (mixed)
# RNA 1: B1 RNA 1
# RNA 2: B1 RNA 2 with C27U, U28C, U29G, U54A
# B26: target 1 MT 5'PFS ACA 3'PFS AGG (mixed)
# RNA 1: B1 RNA 1
# RNA 2: B1 RNA 2 with C27A, U28C, U29A, A53G, U54G
# B27: target 1 MT 5'PFS CCU 3'PFS UCG (mixed)
# RNA 1: B1 RNA 1
# RNA 2: B1 RNA 2 with U28C, A52U, A53C, U54G
# B28: target 1 MT 5'PFS GGG 3'PFS UCA (mixed)
# RNA 1: B1 RNA 1
# RNA 2: B1 RNA 2 with C27G, U28G, U29G, A52U, A53C, U54A
# B29: target 1 MT 5'PFS GAC 3'PFS CGU (mixed)
# RNA 1: B1 RNA 1
# RNA 2: B1 RNA 2 with C27G, U28A, U29C, A52C, A53G
# B30: target 1 MT 5'PFS CUC 3'PFS UAU (mixed)
# RNA 1: B1 RNA 1
# RNA 2: B1 RNA 2 with U29C, A52U
# B31: target 1 MT 5'PFS UCC 3'PFS ACU (mixed)
# RNA 1: B1 RNA 1
# RNA 2: B1 RNA 2 with C27U, U28C, U29C, A53C
# B32: target 1 MT 5'PFS GAC 3'PFS CGG (mixed)
# RNA 1: B1 RNA 1
# RNA 2: B1 RNA 2 with C27G, U28A, U29C, A52C, A53G, U54G
# B33: target 1 MT 5'PFS GGC 3'PFS UGA (mixed)
# RNA 1: B1 RNA 1
# RNA 2: B1 RNA 2 with C27G, U28G, U29C, A52U, A53G, U54A
# B34: target 1 MT 5'PFS GGG 3'PFS AAA (mixed)
# RNA 1: B1 RNA 1
# RNA 2: B1 RNA 2 with C27G, U28G, U29G, U54A
# B35: target 1 MT 5'PFS CUU 3'PFS ACC (mixed)
# RNA 1: B1 RNA 1
# RNA 2: B1 RNA 2 with A53C, U54C
# B36: target 1 MT 5'PFS GGG 3'PFS UCG (mixed)
# RNA 1: B1 RNA 1
# RNA 2: B1 RNA 2 with C27G, U28G, U29G, A52U, A53C, U54G
# B37: target 1 MT 5'PFS CUU 3'PFS CCC (mixed)
# RNA 1: B1 RNA 1
# RNA 2: B1 RNA 2 with A52C, A53C, U54C
# B38: target 1 MT 5'PFS AAA 3'PFS UGU (mixed)
# RNA 1: B1 RNA 1
# RNA 2: B1 RNA 2 with C27A, U28A, U29A, A52U, A53G
# Molecular target: T1, EsCas13d, nuclease-dead
# Test: crRNA (strand 1, pre-loaded); Mg2+; 40 mM Tris-HCl pH 7.5, 150 mM NaCl, 6 mM MgCl2, 1 mM DTT, 0.1% Tween-20, 0.2 mg/ml BSA; 25 C; 10 min per concentration, then washed
# Details: tags: His6-TwinStrep-SUMO cleaved; N-terminal SNAP kept (SNAP-Surface 488); label: 3' end held by stalled T7 RNA polymerase
row,Binder,Kd
1,B1,58 ± 27 nM
2,B2,14 ± 5 nM
3,B3,28 ± 4.5 nM
4,B4,46.5 ± 12 nM
5,B5,30 ± 11 nM
6,B6,17.4 ± 0.8 nM
7,B7,16.1 ± 2.25 nM
8,B8,~20 nM
9,B9,14.7 ± 1 nM
10,B10,20.1 ± 3.45 nM
11,B11,~60 nM
12,B12,53 ± 23.5 nM
13,B13,~41.5 nM
14,B14,15.6 ± 5.05 nM
15,B15,22.5 ± 4.25 nM
16,B16,29 ± 6 nM
17,B17,21.9 ± 1 nM
18,B18,~71.5 nM
19,B19,48.5 ± 14 nM

row,Binder,Kd
1,B20,~110 nM
2,B21,28 ± 7.5 nM
3,B22,29 ± 11.5 nM
4,B23,19.6 ± 4.1 nM
5,B24,33 ± 4 nM
6,B25,23 ± 8 nM
7,B26,~46 nM
8,B27,14.2 ± 4.1 nM
9,B28,18.6 ± 3.75 nM
10,B29,15.5 ± 5 nM
11,B30,~60 nM
12,B31,14 ± 5 nM
13,B32,~35 nM
14,B33,11.7 ± 1.45 nM
15,B34,50 ± 11.5 nM
16,B35,~24 nM
17,B36,20.7 ± 3.55 nM
18,B37,80 ± 40 nM
19,B38,40.5 ± 14.5 nM
